From publication PMC10442227, “Mechanistic and evolutionary insights into a type V-M CRISPR–Cas effector enzyme”

Assays:
[1] = target: T1, Cas12m2 (UniProt PDB:8HIO_2 1-596); experiment: cryo-EM; full R-loop state (state I), 17-bp heteroduplex; Mg2+, Zn2+; SPR: 20 mM HEPES pH 7.8, 150 mM KCl, 10% glycerol, 5 mM MgCl2, 1 mM DTT, 0.05% Tween-20, 25 C; cryo-EM: 20 mM HEPES-NaOH pH 7.6, 50 mM NaCl, 2 mM MgCl2, 10 uM ZnCl2; conditions: protein: recombinant; tags: N-terminal His6; crRNA guide pairs with S4 (17 bp, R-loop); S4/S5 blunt 36-bp duplex
T1 sequence: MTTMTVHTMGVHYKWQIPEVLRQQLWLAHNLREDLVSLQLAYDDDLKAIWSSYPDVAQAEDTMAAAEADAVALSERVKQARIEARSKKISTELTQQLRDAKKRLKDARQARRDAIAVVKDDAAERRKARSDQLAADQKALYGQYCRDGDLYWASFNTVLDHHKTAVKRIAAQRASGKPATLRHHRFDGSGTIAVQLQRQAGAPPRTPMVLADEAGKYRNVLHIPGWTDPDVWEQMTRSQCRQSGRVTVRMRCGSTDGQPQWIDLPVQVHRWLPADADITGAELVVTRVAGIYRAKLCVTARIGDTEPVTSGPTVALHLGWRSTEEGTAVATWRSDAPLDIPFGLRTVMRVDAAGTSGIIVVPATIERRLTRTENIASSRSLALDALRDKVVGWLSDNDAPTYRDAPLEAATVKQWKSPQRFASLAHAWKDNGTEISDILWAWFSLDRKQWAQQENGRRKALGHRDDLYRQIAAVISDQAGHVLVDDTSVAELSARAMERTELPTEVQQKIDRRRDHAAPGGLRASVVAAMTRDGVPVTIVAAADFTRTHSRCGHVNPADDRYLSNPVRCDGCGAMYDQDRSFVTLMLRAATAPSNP

[2] = target: T2, Cas12m2 (binary complex) (UniProt PDB:8HIO_2 1-596); experiment: cryo-EM; binary complex; SPR: 20 mM HEPES pH 7.8, 150 mM KCl, 10% glycerol, 5 mM MgCl2, 1 mM DTT, 0.05% Tween-20, 25 C; cryo-EM: 20 mM HEPES-NaOH pH 7.6, 50 mM NaCl, 2 mM MgCl2, 10 uM ZnCl2; conditions: protein: recombinant; tags: N-terminal His6; chain copies: 2; stem and pseudoknot scaffold
T2 sequence: T1 sequence

[3] = target: T3, Cas12m2 (SPR prep) (UniProt PDB:8HIO_2 1-596); experiment: SPR; 5 mM Mg2+; two-state fit, 8-63 nM RNP; SPR: 20 mM HEPES pH 7.8, 150 mM KCl, 10% glycerol, 5 mM MgCl2, 1 mM DTT, 0.05% Tween-20, 25 C; cryo-EM: 20 mM HEPES-NaOH pH 7.6, 50 mM NaCl, 2 mM MgCl2, 10 uM ZnCl2; conditions: protein: recombinant; tags: pML-1B vector, nickel-purified (His); label: 5'-biotin on DNA top strand; guide pairs with DNA top strand; DNA blunt 50-bp duplex
T3 sequence: T1 sequence

B1: crRNA (56 nt) + 36-bp target DNA (TTG PAM) (mixed)
RNA: GUGUCAUAGCCCAGCUUGGCGGGCGAAGGCCAAGACGGAGAUGAGGUGCGCGUGGC
DNA 1: GATGGTGCCACGCGCACCTCATCTCCCAAATAGACA
DNA 2: TGTCTATTTGGGAGATGAGGTGCGCGTGGCACCATC
binding result [1]: binds

B2: crRNA (56 nt) (structured_RNA)
RNA: B1 RNA
binding result [2]: binds

B3: PAM-SCNR RNA + 50-bp target dsDNA (mixed)
RNA: GUGUCAUAGCCCAGCUUGGCGGGCGAAGGCCAAGACGUCGAGUGCAAAACCUUUCG
DNA 1: CAGCTATAGTTCTCGAAAGGTTTTGCACTCGACTAAAGGACTCTATGACC
DNA 2: GGTCATAGAGTCCTTTAGTCGAGTGCAAAACCTTTCGAGAACTATAGCTG
Kd [3]: ~2.7 nM
